# In patent US20190170753A1 (ICAHN SCHOOL OF MEDICINE AT MOUNT SINAI, published 2019):
# Where no end group is shown, it is not given here.
# T1: C113WT biotin labeled HCV core peptide (hepatitis C virus, also: biotin labeled, position not given here)
# T1 peptide: RGSRPSWGPTD
# T2: Mut1T110N biotin labeled HCV core peptide (hepatitis C virus, biotin labeled (position not given))
# T2 peptide: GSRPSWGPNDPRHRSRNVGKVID
# T3: WT1STHV biotin labeled HCV core peptide (hepatitis C virus, biotin labeled (position not given))
# T3 peptide: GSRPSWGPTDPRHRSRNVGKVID
# T4: C113T109N biotin labeled HCV core peptide (hepatitis C virus, also: biotin labeled, position not given here)
# T4 construct: also called C113T110N
# T4 peptide: RGSRPSWGPND
# T5: 92-133 biotin labeled HCV core peptide (hepatitis C virus, UniProt Q9WMX2 92-133, chain 1: biotin label (bt-pep). Its position and any spacer are not visible in the passages shown.)
# T5 construct: Only the label 92-133 is printed
# T5 peptide: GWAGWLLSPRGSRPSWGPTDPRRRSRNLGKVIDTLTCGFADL
# B1: Neo4 mouse monoclonal antibody (antibody, V domains shown)
# VH: QIQLKESGPAVIKPSQSLSLTCIVSGFSITSSVYCWQWIRQPPGKGLEWMGRICYDGSVDYSPSITSRGTISRDTSLNKVFFQLSSVTNEDTAMYYCSRENHIDYYDTTYPSFDVWGAGTTVTVSS
# VL: DIVLTQSPASLIVSLGQRATISCRASKSVNEYGYTYMHWYQQKPGLPPKLLIYLASNLDSGVPARFSGSGSGTDFTLNIHPVEEEDAATYYCQHSRELPYTFGGGTKLEIKR
# notes: Mouse hybridoma antibody, isotype IgG1, purified with Protein G; also called HCV Neo4
# Assays:
# [1] = target: T1, C113WT biotin labeled HCV core peptide; test: capture EIA; Ab 2000 ng/mL; bt-peptide 500 ng/mL
# Method: (§1) Assay wells were coated with sheep anti-mouse IgG Fc specific antibody and incubated overnight. The coating solution was then removed; the wells blocked using BSA/tween in PBS and then washed with dH2O. […] Next, biotin labeled peptides (diluted to 500 ng/mL in block) were added, the plates incubated for 10 minutes while shaking at 700 rpm and then washed. Peroxidase conjugated streptavidin (diluted to 200 ng/mL in block) was then added to all assay wells, incubated for 20 minutes while shaking at 700 rpm and then washed. Finally, color was developed using OPD and signal quenched using 1N H₂SO₄. Signal was read at 492 nm.
# [2] = target: T2, Mut1T110N biotin labeled HCV core …; test: capture EIA; Ab 2000 ng/mL; bt-peptide 500 ng/mL
# Method: as §1
# [3] = target: T3, WT1STHV biotin labeled HCV core peptide; test: capture EIA; Ab 2000 ng/mL; bt-peptide 500 ng/mL
# Method: as §1
# [4] = target: T4, C113T109N biotin labeled HCV core …; test: capture EIA; Ab 2000 ng/mL; bt-peptide 500 ng/mL
# Method: as §1
# [5] = target: T5, 92-133 biotin labeled HCV core peptide; test: capture EIA; Ab 2000 ng/mL; bt-peptide 500 ng/mL
# Method: as §1
# [6] = target: T6, Mut6T110S biotin labeled HCV core peptide (hepatitis C virus, biotin labeled (position not given)); test: capture EIA; Ab 2000 ng/mL; bt-peptide 500 ng/mL
# [7] = target: T2, Mut1T110N biotin labeled HCV core …; test: capture EIA; Ab 125 ng/mL; bt-peptide 500 ng/mL
# Method: as §1
# [8] = target: T3, WT1STHV biotin labeled HCV core peptide; test: capture EIA; Ab 125 ng/mL; bt-peptide 500 ng/mL
# Method: as §1
# [9] = target: T1, C113WT biotin labeled HCV core peptide; test: capture EIA; Ab 0.977 ng/mL; bt-peptide 500 ng/mL
# Method: as §1
# [10] = target: T2, Mut1T110N biotin labeled HCV core …; test: capture EIA; Ab 0.977 ng/mL; bt-peptide 500 ng/mL
# Method: as §1
# [11] = target: T3, WT1STHV biotin labeled HCV core peptide; test: capture EIA; Ab 0.977 ng/mL; bt-peptide 500 ng/mL
# Method: as §1
# [12] = target: T4, C113T109N biotin labeled HCV core …; test: capture EIA; Ab 0.977 ng/mL; bt-peptide 500 ng/mL
# Method: as §1
# [13] = target: T5, 92-133 biotin labeled HCV core peptide; test: capture EIA; Ab 0.977 ng/mL; bt-peptide 500 ng/mL
# Method: as §1
# [14] = target: T6, Mut6T110S biotin labeled HCV core …; test: capture EIA; Ab 0.977 ng/mL; bt-peptide 500 ng/mL
# Method: as §1
binder,measurement,setting,value
B1,signal at 492 nm,[1],0.0766 A492
same,signal at 492 nm,[2],0.0882 A492
same,signal at 492 nm,[3],1.9 A492
same,signal at 492 nm,[4],0.059 A492
same,signal at 492 nm,[5],1.31 A492
same,signal at 492 nm,[6],1.17 A492
same,signal at 492 nm,[7],0.204 A492
same,signal at 492 nm,[8],1.93 A492
same,signal at 492 nm,[9],0.0584 A492
same,signal at 492 nm,[10],0.0619 A492
same,signal at 492 nm,[11],0.22 A492
same,signal at 492 nm,[12],0.0784 A492
same,signal at 492 nm,[13],0.0978 A492
same,signal at 492 nm,[14],0.0644 A492
